Results published in IntAct's records for PubMed 25461530.

B1: Dipeptidyl peptidase 4 (Homo sapiens), P27487 (parent)
chain: MKTPWKVLLGLLGAAALVTIITVPVVLLNKGTDDATADSRKTYTLTDYLKNTYRLKLYSLRWISDHEYLYKQENNILVFNAEYGNSSVFLENSTFDEFGHSINDYSISPDGQFILLEYNYVKQWRHSYTASYDIYDLNKRQLITEERIPNNTQWVTWSPVGHKLAYVWNNDIYVKIEPNLPSYRITWTGKEDIIYNGITDWVYEEEVFSAYSALWWSPNGTFLAYAQFNDTEVPLIEYSFYSDESLQYPKTVRVPYPKAGAVNPTVKFFVVNTDSLSSVTNATSIQITAPASMLIGDHYLCDVTWATQERISLQWLRRIQNYSVMDICDYDESSGRWNCLVARQHIEMSTTGWVGRFRPSEPHFTLDGNSFYKIISNEEGYRHICYFQIDKKDCTFITKGTWEVIGIEALTSDYLYYISNEYKGMPGGRNLYKIQLSDYTKVTCLSCELNPERCQYYSVSFSKEAKYYQLRCSGPGLPLYTLHSSVNDKGLRVLEDNSALDKMLQNVQMPSKKLDFIILNETKFWYQMILPPHFDKSKKYPLLLDVYAGPCSQKADTVFRLNWATYLASTENIIVASFDGRGSGYQGDKIMHAINRRLGTFEVEDQIEAARQFSKMGFVDNKRIAIWGWSYGGYVTSMVLGSGSGVFKCGIAVAPVSRWEYYDSVYTERYMGLPTPEDNLDHYRNSTVMSRAENFKQVEYLLIHGTADDNVHFQQSAQISKALVDVGVDFQAMWYTDEDHGIASSTAHQHIYTHMSHFIKQCFSLP

Variants of: B1
Conditions: with spike_mers1 S

Row | Variant | effect of a mutation on the interaction
1 | K267A | disrupting interaction strength
2 | K267E | disrupting interaction strength
3 | L294A;I295A | disrupting interaction strength
4 | R336A | decreasing interaction strength
5 | R317A | decreasing interaction strength
6 | Q344A | with no effect
7 | L294D;I295D | disrupting interaction strength
